This is an account of results in patent US20240053360A1 (EQUILLIUM, published 2024).

In the assay the target is T1, cell surface CD6 on human T cells (CD4 and CD8 T cells of PBMCs / whole blood) (human, UniProt P30203 18-668).
T1 construct: whole, on cells
T1 sequence (looked up): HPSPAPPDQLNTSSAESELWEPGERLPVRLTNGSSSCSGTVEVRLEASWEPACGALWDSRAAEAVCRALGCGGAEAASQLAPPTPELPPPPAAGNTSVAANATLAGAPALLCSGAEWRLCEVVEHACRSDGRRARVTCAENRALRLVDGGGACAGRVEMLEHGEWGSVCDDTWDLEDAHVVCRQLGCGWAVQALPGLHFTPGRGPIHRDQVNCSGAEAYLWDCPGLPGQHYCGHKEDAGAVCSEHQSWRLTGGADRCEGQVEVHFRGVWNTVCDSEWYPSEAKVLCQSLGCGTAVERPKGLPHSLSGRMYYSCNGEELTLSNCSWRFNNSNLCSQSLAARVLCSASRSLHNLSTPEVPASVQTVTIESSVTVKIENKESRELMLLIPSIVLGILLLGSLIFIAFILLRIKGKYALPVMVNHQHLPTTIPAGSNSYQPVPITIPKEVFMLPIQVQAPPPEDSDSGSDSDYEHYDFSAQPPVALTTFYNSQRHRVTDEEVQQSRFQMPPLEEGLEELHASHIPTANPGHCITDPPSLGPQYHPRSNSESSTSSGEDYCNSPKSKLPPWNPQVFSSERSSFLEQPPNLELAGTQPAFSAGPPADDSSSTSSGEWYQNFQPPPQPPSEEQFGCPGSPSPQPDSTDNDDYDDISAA
The assay is described as follows: flow cytometry, receptor occupancy on CD4 and CD8 T cells. For orientation: A flow cytometer gives signals particle by particle.

B1: itolizumab (antibody, human IgG1, kappa, V domains shown)
VH: EVQLVESGGGLVKPGGSLKLSCAASGFKFSRYAMSWVRQAPGKRLEWVATISSGGSYIYYPDSVKGRFTISRDNVKNTLYLQMSSLRSEDTAMYYCARRDYDLDYFDSWGQGTLVTVSS
VL: DIQMTQSPSSLSASVGDRVTITCKASRDIRSYLTWYQQKPGKAPKTLIYYATSLADGVPSRFSGSGSGQDYSLTISSLESDDTATYYCLQHGESPFTLGSGTKLEIKR
notes: Humanized anti-CD6 monoclonal antibody; also called EQ001; ALZUMAB
Consider B1, for which the binding result is listed as “binds”.
